Source: patent CN105131113A (ATTOBIO BIOPHARMACEUTICAL SUZHOU CO LTD, dated 2015)

How the values were obtained:
His-HPV18E7融合蛋白 = biological target: T1, His-HPV18E7融合蛋白 (HPV18, UniProt P06788 1-105); assay: indirect ELISA, antigen coated at 0.5μg/ml, antibody 0.1μg/ml
T1 construct: not shown: His tag
T1 chain: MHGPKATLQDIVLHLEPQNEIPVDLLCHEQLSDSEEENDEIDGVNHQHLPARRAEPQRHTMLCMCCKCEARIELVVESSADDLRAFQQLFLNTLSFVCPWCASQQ

重组蛋白His-HPV16E7 = biological target: T2, 重组蛋白His-HPV16E7 (HPV16, UniProt P03129 2-98); assay: as above
T2 construct: also called His-HPV16E7融合蛋白; His-HPV16E7重组蛋白; not shown: His tag
T2 sequence: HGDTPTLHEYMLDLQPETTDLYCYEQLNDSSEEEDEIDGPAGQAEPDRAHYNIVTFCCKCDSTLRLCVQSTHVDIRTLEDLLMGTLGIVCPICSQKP

多肽HPV16E7-1 = biological target: T3, 多肽HPV16E7-1 (HPV16); assay: ELISA, peptide coated at 2μg/ml
T3 construct: Peptide of HPV16 E7
T3 peptide: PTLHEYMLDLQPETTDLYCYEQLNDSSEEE

多肽HPV16E7-27 = biological target: T4, 多肽HPV16E7-27 (HPV16); assay: ELISA, peptide coated at 2μg/ml
T4 construct: Peptide of HPV16 E7
T4 peptide: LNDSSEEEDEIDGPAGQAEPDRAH

多肽His-Vac = biological target: T5, 多肽His-Vac (HPV16); assay: ELISA, peptide coated at 2μg/ml
T5 peptide: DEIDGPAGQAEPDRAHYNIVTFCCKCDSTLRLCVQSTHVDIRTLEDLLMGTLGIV

多肽HPV16E7-5 = biological target: T6, 多肽HPV16E7-5 (HPV16); assay: ELISA, peptide coated at 2μg/ml
T6 construct: Peptide of HPV16 E7
T6 peptide: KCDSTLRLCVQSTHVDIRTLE

细胞内源的HPV16E7蛋白 = biological target: T7, 细胞内源的HPV16E7蛋白 (HPV16, UniProt P03129 2-98); assay: immunocytochemistry on fixed, permeabilised CaSki cells (C-33A as negative control)
T7 construct: Endogenous, intracellular HPV16 E7 in fixed and permeabilised CaSki cells (ICC) or in formalin-fixed paraffin sections of cervical tissue (IHC); as printed it has no initial Met; also called 宫颈癌细胞株CaSki表达的HPV16E7蛋白; 宫颈癌组织中的HPV16E7蛋白
T7 sequence: T2 sequence

B1: 兔源单克隆抗体RAB-034 (antibody, V domains shown)
VH: QSLEESGGRLVTPGTPLTLTCTVSGIDLSSYAMGWVRQAPGEGLDWIGSIGSSGRTYYANWAKGRFTISKTSSTTVDLKMTSLTTEDTATYFCARGVVNRSDIWGPGTLVTVSS
VL: DPMLTQTASSVSAAVGGTVTISCQSSQSVYDNNWLGWYQQKPGQPPKLLIYGASNLESGVPSRFKGSGSGTQFTLTISDVQCDDAATYYCAGGYSGNRYVFGGGTEVVVK
notes: also called 抗HPV16E7兔单抗RAB-034
- binding result (His-HPV18E7融合蛋白): binds
- binding result (重组蛋白His-HPV16E7): binds
- binding result (多肽HPV16E7-1): no binding (tested: 1μg/ml)
- binding result (多肽HPV16E7-27): no binding (tested: 1μg/ml)
- binding result (多肽His-Vac): no binding (tested: 1μg/ml)
- binding result (多肽HPV16E7-5): no binding (tested: 1μg/ml)
- binding result (细胞内源的HPV16E7蛋白): binds
